{"source": "the Human Domainome abundance scans (Beltran et al. 2025)", "parents": {"B1": {"name": "POU domain, class 5, transcription factor 1, residues 134 to 212; numbered along this chain, Q01860 (parent)", "chain": "EESQDIKALQKELEQFAKLLKQKRITLGYTQADVGLTLGVLFGKVFSQTTICRFEALQLSFKNMCKLRPLLQKWVEEAD"}}, "note": "± gives the uncertainty stated by the source.", "data": [{"variants_of": "B1", "assay": "abundance fitness (aPCA) (normalised: wild type 0, dead -1); higher = more abundant; growth selection in yeast, the domain comes from the species named", "conditions": "Homo sapiens", "values": [{"variant": "EESQDIKALQKELEQFAKLLKQKRITLGYTQADAGLTLGVLFGKVFSQTTICRFEALQLSFKNMCKLRPLLQKWVEEAD", "note": "[V34A]", "abundance fitness": "-0.742 ± 0.29"}, {"variant": "EESQDIKALQKELEQFAKLLKQKRITLGYTQADRGLTLGVLFGKVFSQTTICRFEALQLSFKNMCKLRPLLQKWVEEAD", "note": "[V34R]", "abundance fitness": "-0.637 ± 0.2"}, {"variant": "EESQDIKALQKELEQFAKLLKQKRITLGYTQWDVGLTLGVLFGKVFSQTTICRFEALQLSFKNMCKLRPLLQKWVEEAD", "note": "[A32W]", "abundance fitness": "-0.682 ± 0.29"}, {"variant": "EESQDIKALQKELEQFAKLLKQKRITLGYTQGDVGLTLGVLFGKVFSQTTICRFEALQLSFKNMCKLRPLLQKWVEEAD", "note": "[A32G]", "abundance fitness": "-0.235 ± 0.1"}, {"variant": "EESQDIKALQKELEQFAKLLKQKRITLGYTQHDVGLTLGVLFGKVFSQTTICRFEALQLSFKNMCKLRPLLQKWVEEAD", "note": "[A32H]", "abundance fitness": "-0.487 ± 0.41"}, {"variant": "EESQDIKALQKELEQFAKLLKQKRITLGYTQTDVGLTLGVLFGKVFSQTTICRFEALQLSFKNMCKLRPLLQKWVEEAD", "note": "[A32T]", "abundance fitness": "-0.06 ± 0.21"}, {"variant": "EESQDIKALQKELEQFAKLLKQKRITLGYTQNDVGLTLGVLFGKVFSQTTICRFEALQLSFKNMCKLRPLLQKWVEEAD", "note": "[A32N]", "abundance fitness": "-0.193 ± 0.33"}, {"variant": "EESQDIKALQKELEQFAKLLKQKRITLGYTQVDVGLTLGVLFGKVFSQTTICRFEALQLSFKNMCKLRPLLQKWVEEAD", "note": "[A32V]", "abundance fitness": "-0.785 ± 0.31"}, {"variant": "EESQDIKALQKELEQFAKLLKQKRITLGYTQLDVGLTLGVLFGKVFSQTTICRFEALQLSFKNMCKLRPLLQKWVEEAD", "note": "[A32L]", "abundance fitness": "-0.749 ± 0.27"}, {"variant": "EESQDIKALQKELEQFAKLLKQKRITLGYTQKDVGLTLGVLFGKVFSQTTICRFEALQLSFKNMCKLRPLLQKWVEEAD", "note": "[A32K]", "abundance fitness": "0.232 ± 0.2"}, {"variant": "EESQDIKALQKELEQFAKLLKQKRITLGYTQEDVGLTLGVLFGKVFSQTTICRFEALQLSFKNMCKLRPLLQKWVEEAD", "note": "[A32E]", "abundance fitness": "-0.024 ± 0.15"}, {"variant": "EESQDIKALQKELEQFAKLLKQKRITLGYTQCDVGLTLGVLFGKVFSQTTICRFEALQLSFKNMCKLRPLLQKWVEEAD", "note": "[A32C]", "abundance fitness": "-0.229 ± 0.32"}, {"variant": "EESQDIKALQKELEQFAKLLKQKRITLGYTQRDVGLTLGVLFGKVFSQTTICRFEALQLSFKNMCKLRPLLQKWVEEAD", "note": "[A32R]", "abundance fitness": "0.066 ± 0.1"}, {"variant": "EESQDIKALQKELEQFAKLLKQKRITLGYHQADVGLTLGVLFGKVFSQTTICRFEALQLSFKNMCKLRPLLQKWVEEAD", "note": "[T30H]", "abundance fitness": "-0.437 ± 0.44"}, {"variant": "EESQDIKALQKELEQFAKLLKQKRITLGYQQADVGLTLGVLFGKVFSQTTICRFEALQLSFKNMCKLRPLLQKWVEEAD", "note": "[T30Q]", "abundance fitness": "-0.664 ± 0.3"}, {"variant": "EESQDIKALQKELEQFAKLLKQKRITLGYVQADVGLTLGVLFGKVFSQTTICRFEALQLSFKNMCKLRPLLQKWVEEAD", "note": "[T30V]", "abundance fitness": "-0.392 ± 0.12"}, {"variant": "EESQDIKALQKELEQFAKLLKQKRITLGYRQADVGLTLGVLFGKVFSQTTICRFEALQLSFKNMCKLRPLLQKWVEEAD", "note": "[T30R]", "abundance fitness": "-0.249 ± 0.078"}, {"variant": "EESQDIKALQKELEQFAKLLKQKRITLGYAQADVGLTLGVLFGKVFSQTTICRFEALQLSFKNMCKLRPLLQKWVEEAD", "note": "[T30A]", "abundance fitness": "-0.667 ± 0.18"}, {"variant": "EESQDIKALQKELEQFAKLLKQKRITLGYEQADVGLTLGVLFGKVFSQTTICRFEALQLSFKNMCKLRPLLQKWVEEAD", "note": "[T30E]", "abundance fitness": "-1.06 ± 0.48"}, {"variant": "EESQDIKALQKELEQFAKLLKQKRITLGYMQADVGLTLGVLFGKVFSQTTICRFEALQLSFKNMCKLRPLLQKWVEEAD", "note": "[T30M]", "abundance fitness": "-0.526 ± 0.25"}, {"variant": "EESQDIKALQKELEQFAKLLKQKRITLGYLQADVGLTLGVLFGKVFSQTTICRFEALQLSFKNMCKLRPLLQKWVEEAD", "note": "[T30L]", "abundance fitness": "-0.853 ± 0.27"}, {"variant": "EESQDIKALQKELEQFAKLLKQKRITLGYSQADVGLTLGVLFGKVFSQTTICRFEALQLSFKNMCKLRPLLQKWVEEAD", "note": "[T30S]", "abundance fitness": "0.082 ± 0.085"}, {"variant": "EESQDIKALQKELEQFAKLLKQKRITLGYTQAVVGLTLGVLFGKVFSQTTICRFEALQLSFKNMCKLRPLLQKWVEEAD", "note": "[D33V]", "abundance fitness": "-1.19 ± 0.42"}, {"variant": "EESQDIKALQKELEQFAKLLKQKRITLGYTQAWVGLTLGVLFGKVFSQTTICRFEALQLSFKNMCKLRPLLQKWVEEAD", "note": "[D33W]", "abundance fitness": "-0.563 ± 0.23"}, {"variant": "EESQDIKALQKELEQFAKLLKQKRITLGYTQASVGLTLGVLFGKVFSQTTICRFEALQLSFKNMCKLRPLLQKWVEEAD", "note": "[D33S]", "abundance fitness": "-0.572 ± 0.19"}, {"variant": "EESQDIKALQKELEQFAKLLKQKRITLGYTQAQVGLTLGVLFGKVFSQTTICRFEALQLSFKNMCKLRPLLQKWVEEAD", "note": "[D33Q]", "abundance fitness": "0.236 ± 0.13"}, {"variant": "EESQDIKALQKELEQFAKLLKQKRITLGYTQATVGLTLGVLFGKVFSQTTICRFEALQLSFKNMCKLRPLLQKWVEEAD", "note": "[D33T]", "abundance fitness": "-1.08 ± 0.5"}, {"variant": "EESQDIKALQKELEQFAKLLKQKRITLGYTQAMVGLTLGVLFGKVFSQTTICRFEALQLSFKNMCKLRPLLQKWVEEAD", "note": "[D33M]", "abundance fitness": "-0.497 ± 0.34"}, {"variant": "EESQDIKALQKELEQFAKLLKQKRITLGYTQAGVGLTLGVLFGKVFSQTTICRFEALQLSFKNMCKLRPLLQKWVEEAD", "note": "[D33G]", "abundance fitness": "-0.283 ± 0.12"}, {"variant": "EESQDIKALQKELEQFAKLLKQKRITLGYTQAFVGLTLGVLFGKVFSQTTICRFEALQLSFKNMCKLRPLLQKWVEEAD", "note": "[D33F]", "abundance fitness": "-0.407 ± 0.31"}, {"variant": "EESQDIKALQKELEQFAKLLKQKRITLGYTQAPVGLTLGVLFGKVFSQTTICRFEALQLSFKNMCKLRPLLQKWVEEAD", "note": "[D33P]", "abundance fitness": "-0.227 ± 0.2"}, {"variant": "EESQDIKALQKELEQFAKLLKQKRITLGYTQAKVGLTLGVLFGKVFSQTTICRFEALQLSFKNMCKLRPLLQKWVEEAD", "note": "[D33K]", "abundance fitness": "0.128 ± 0.2"}, {"variant": "EESQDIKALQKELEQFAKLLKQKRITLGYTQAEVGLTLGVLFGKVFSQTTICRFEALQLSFKNMCKLRPLLQKWVEEAD", "note": "[D33E]", "abundance fitness": "-0.081 ± 0.13"}, {"variant": "EESQDIKALQKELEQFAKLLKQKRITLGYTQAAVGLTLGVLFGKVFSQTTICRFEALQLSFKNMCKLRPLLQKWVEEAD", "note": "[D33A]", "abundance fitness": "-0.594 ± 0.19"}, {"variant": "EESQDIKALQKELEQFAKLLKQKRITLGYTQALVGLTLGVLFGKVFSQTTICRFEALQLSFKNMCKLRPLLQKWVEEAD", "note": "[D33L]", "abundance fitness": "-0.563 ± 0.23"}]}]}
